The target in this assay is T1, Recombinant FGF-20 (rat, UniProt Q9EST9 1-212).
T1 construct: Immobilised on a CM5 sensor chip in the assay; also called recombinant rat FGF-20; rFGF-20
Put plainly: SPR (BIACORE 2000), FGF-20 immobilised on CM5, receptor extracellular domain as analyte. (In general: SPR reads the build-up and loss of mass on a sensor chip optically.)

From US6797695 come the findings set out here.

T1 sequence (Q9EST9 other isoform, or with tags, fused parts or gaps limits assumed): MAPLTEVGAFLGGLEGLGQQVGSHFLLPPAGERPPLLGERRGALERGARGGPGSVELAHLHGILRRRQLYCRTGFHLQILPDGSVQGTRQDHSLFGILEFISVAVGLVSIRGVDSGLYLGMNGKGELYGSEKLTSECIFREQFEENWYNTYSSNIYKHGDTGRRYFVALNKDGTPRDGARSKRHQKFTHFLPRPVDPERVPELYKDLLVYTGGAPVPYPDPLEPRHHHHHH

B1: recombinant extracellular domain of FGFR-3c (receptor)
chain: ESLGTEQRVVGRAAEVPGPEPGQQEQLVFGSGDAVELSCPPPGGGPMGPTVWVKDGTGLVPSERVLVGPQRLQVLNASHEDSGAYSCRQRLTQRVLCHFSVRVTDAPSSGDDEDGEDEAEDTGVDTGAPYWTRPERMDKKLLAVPAANTVRFRCPAAGNPTPSISWLKNGREFRGEHRIGGIKLRHQQWSLVMESVVPSDRGNYTCVVENKFGSIRQTYTLDVLERSPHRPILQAGLPANQTAVLGSDVEFHCKVYSDAQPHIQWLKHVEVNGSKVGPDGTPYVTVLKTAGANTTDKELEVLSLHNVTFEDAGEYTCLAGNSIGFSHHSAWLVVLPAEEELVEADEAGSVYAG
Consider B1, for which the Kd was determined as 217 nM, the koff came out at 0.0247 s⁻¹ and the kon was determined as 115000 M⁻¹ s⁻¹.

As usually defined, the Kd is the equilibrium constant for the complex coming apart. As a reminder, the koff is the first-order rate constant of dissociation. In general, kon refers to a measure of how fast the partners come together.
